Experimental data as given in FireProtDB (doi:10.1016/j.jmb.2009.08.013).

Conditions: Bos taurus; pH 7.2; 10 °C; Urea; Fluorescence; Sodium phosphate 25 mM; KCl 150 mM; whole UniProt chain shown

B1: Cellular tumor antigen p53 wild type, P67939 (protein)
chain: MEESQAELNVEPPLSQETFSDLWNLLPENNLLSSELSAPVDDLLPYTDVATWLDECPNEAPQMPEPSAPAAPPPATPAPATSWPLSSFVPSQKTYPGNYGFRLGFLQSGTAKSVTCTYSPSLNKLFCQLAKTCPVQLWVDSPPPPGTRVRAMAIYKKLEHMTEVVRRCPHHERSSDYSDGLAPPQHLIRVEGNLRAEYLDDRNTFRHSVVVPYESPEIDSECTTIHYNFMCNSSCMGGMNRRPILTIITLEDSCGNLLGRNSFEVRVCACPGRDRRTEEENLRKKGQSCPEPPPRSTKRALPTNTSSSPQPKKKPLDGEYFTLQIRGFKRYEMFRELNDALELKDALDGREPGESRAHSSHLKSKKRPSPSCHKKPMLKREGPDSD
For B1, the “denaturant midpoint (higher = more stable)” value was 5.21 M.
